Source: patent US8598314B2 (priority 2007, dated 2013)

Experiments:
[1] = Peptide stability in human kidney brush border membranes; conditions: Table 6
Protocol: The tubes were incubated in VorTemp 56™ (Eurotech Labs, UK) at 37° C. vortexed at 500 RPM. At time points of 0, 1, 2, 3, 4, and 5 hours, 200 μl STOP solution (50% ACN, 1% formic acid) was added to a given tube, and the samples were allowed to incubate until the end of the experiment. The samples were collected after 5 hours, centrifuged, and 200 μl of the supernatants were transferred into mass spectrometry vials. The intensities of the mother ions in each vial were analyzed with API 150EX™ mass spectrometer (Applied Biosystems, Foster City, Calif.) and quantified using the ANALYST™ program.
The hKBBM assay was also performed in the presence of valinepyrrolidide, a DPP-IV inhibitor.

NIH/Swiss female mice = test: Transient effect on blood glucose and body weight; type: in vivo; conditions: 250 nmol/kg subcutaneous injection; for effect on body weight (in words): FIGS. 14B and 15B; for return of body weight to pre-treatment levels (in words): day 5, FIG. 15B
Protocol: A subcutaneous injection (200 μL) of vehicle (PBS) or test compound was given to NIH/Swiss female mice immediately following baseline glucose and body weight measurement. Tail blood glucose samples were measured (OneTouch® Ultra®, LifeScan Inc., Milpitas, Calif.) at baseline (time=0) and 2, 4, 8, 24, 48, 72 and 96 hrs. Body weight was measured daily. Significant test sample effects were identified by ANONA (p<0.05) followed by Dunnett's post test (GraphPad PRISM®, version 4.00 for Windows, GraphPad Software, San Diego, Calif.). Points in FIG. 14A, FIG. 14B, FIG. 15A and FIG. 15B represent mean±SD (standard deviation).

## CC[C@H](C)[C@H](NC(=O)[C@H](Cc1ccccc1)NC(=O)[C@H](CC(C)C)NC(=O)[C@H](CCCNC(=N)N)NC(=O)[C@@H](NC(=O)[C@H](C)NC(=O)[C@H](CCC(=O)O)NC(=O)[C@H](CCC(=O)O)NC(=O)[C@H](CCC(=O)O)NC(=O)[C@H](CC(C)C)NC(=O)[C@H](CCC(N)=O)NC(=O)[C@H](CCCCN)NC(=O)[C@H](CO)NC(=O)[C@H](CC(C)C)NC(=O)[C@H](CC(=O)O)NC(=O)[C@H](CO)NC(=O)[C@@H](NC(=O)[C@H](Cc1ccccc1)NC(=O)[C@@H](NC(=O)CNC(=O)[C@H](CCC(=O)O)NC(=O)CNC(=O)[C@@H](N)Cc1c[nH]cn1)[C@@H](C)O)[C@@H](C)O)C(C)C)C(=O)N[C@@H](CCC(=O)O)C(=O)N[C@@H](Cc1c[nH]c2ccccc12)C(=O)N[C@@H](CC(C)C)C(=O)N[C@@H](CCCCN)C(=O)N[C@@H](CCC(N)=O)C(=O)NCC(=O)NCC(=O)N1CCC[C@H]1C(=O)N[C@@H](CO)C(=O)N[C@@H](CCCCN)C(=O)N[C@@H](CCC(=O)O)C(=O)N[C@H](C(=O)N[C@H](C(=O)N[C@@H](CO)C(=O)NCCCC(=O)NCCOCCOCC(=O)NCCCC(=O)NCCCCC(N)C(=O)N1CCSC1)[C@@H](C)CC)[C@@H](C)CC (some centres unmarked) [Compound 5932]
[1]
  Stability in hKBBM: 63%
NIH/Swiss female mice
  effect on body weight (in words): decrease in body weight, measurable at day 2
  return of body weight to pre-treatment levels (in words): body weight does not return to pre-treatment levels by day 5

## CC[C@H](C)[C@H](NC(=O)[C@H](Cc1ccccc1)NC(=O)[C@H](CC(C)C)NC(=O)[C@H](CCCNC(=N)N)NC(=O)[C@@H](NC(=O)[C@H](C)NC(=O)[C@H](CCC(=O)O)NC(=O)[C@H](CCC(=O)O)NC(=O)[C@H](CCC(=O)O)NC(=O)[C@H](CC(C)C)NC(=O)[C@H](CCC(N)=O)NC(=O)[C@H](CCCCN)NC(=O)[C@H](CO)NC(=O)[C@H](CC(C)C)NC(=O)[C@H](CC(=O)O)NC(=O)[C@H](CO)NC(=O)[C@@H](NC(=O)[C@H](Cc1ccccc1)NC(=O)[C@@H](NC(=O)CNC(=O)[C@H](CCC(=O)O)NC(=O)CNC(=O)[C@@H](N)Cc1c[nH]cn1)[C@@H](C)O)[C@@H](C)O)C(C)C)C(=O)N[C@@H](CCC(=O)O)C(=O)N[C@@H](Cc1c[nH]c2ccccc12)C(=O)N[C@@H](CC(C)C)C(=O)N[C@@H](CCCCN)C(=O)N[C@@H](CCC(N)=O)C(=O)NCC(=O)NCC(=O)N1CCC[C@H]1C(=O)N[C@@H](CO)C(=O)N[C@@H](CCCCN)C(=O)N[C@@H](CCC(=O)O)C(=O)N[C@H](C(=O)N[C@H](C(=O)N[C@@H](CO)C(=O)NCCCC(=O)NCCOCCOCC(=O)NCCCC(=O)NCCCCC(N)C(=O)N1CCC[C@H]1C#N)[C@@H](C)CC)[C@@H](C)CC (some centres unmarked) [Compound 5933]
[1]
  Stability in hKBBM: 87%
NIH/Swiss female mice
  effect on body weight (in words): decrease in body weight, measurable at day 2 which continues at least through day 5

## CC[C@H](C)[C@H](NC(=O)[C@H](Cc1ccccc1)NC(=O)[C@H](CC(C)C)NC(=O)[C@H](CCCNC(=N)N)NC(=O)[C@@H](NC(=O)[C@H](C)NC(=O)[C@H](CCC(=O)O)NC(=O)[C@H](CCC(=O)O)NC(=O)[C@H](CCC(=O)O)NC(=O)[C@H](CC(C)C)NC(=O)[C@H](CCC(N)=O)NC(=O)[C@H](CCCCN)NC(=O)[C@H](CO)NC(=O)[C@H](CC(C)C)NC(=O)[C@H](CC(=O)O)NC(=O)[C@H](CO)NC(=O)[C@@H](NC(=O)[C@H](Cc1ccccc1)NC(=O)[C@@H](NC(=O)CNC(=O)[C@H](CCC(=O)O)NC(=O)CNC(=O)[C@@H](N)Cc1c[nH]cn1)[C@@H](C)O)[C@@H](C)O)C(C)C)C(=O)N[C@@H](CCC(=O)O)C(=O)N[C@@H](Cc1c[nH]c2ccccc12)C(=O)N[C@@H](CC(C)C)C(=O)N[C@@H](CCCCN)C(=O)N[C@@H](CCC(N)=O)C(=O)NCC(=O)NCC(=O)N1CCC[C@H]1C(=O)N[C@@H](CO)C(=O)N[C@@H](CCCCN)C(=O)N[C@@H](CCC(=O)O)C(=O)N[C@H](C(=O)N[C@H](C(=O)N[C@@H](CO)C(=O)NCCOCCOCC(=O)NCCCC[C@H](N)C(=O)N1CC[S+]([O-])C1)[C@@H](C)CC)[C@@H](C)CC (some centres unmarked) [Compound 5934]
[1]
  Stability in hKBBM: 97%

## CC[C@H](C)[C@H](NC(=O)[C@H](Cc1ccccc1)NC(=O)[C@H](CC(C)C)NC(=O)[C@H](CCCNC(=N)N)NC(=O)[C@@H](NC(=O)[C@H](C)NC(=O)[C@H](CCC(=O)O)NC(=O)[C@H](CCC(=O)O)NC(=O)[C@H](CCC(=O)O)NC(=O)[C@H](CC(C)C)NC(=O)[C@H](CCC(N)=O)NC(=O)[C@H](CCCCN)NC(=O)[C@H](CO)NC(=O)[C@H](CC(C)C)NC(=O)[C@H](CC(=O)O)NC(=O)[C@H](CO)NC(=O)[C@@H](NC(=O)[C@H](Cc1ccccc1)NC(=O)[C@@H](NC(=O)CNC(=O)[C@H](CCC(=O)O)NC(=O)CNC(=O)[C@@H](N)Cc1c[nH]cn1)[C@@H](C)O)[C@@H](C)O)C(C)C)C(=O)N[C@@H](CCC(=O)O)C(=O)N[C@@H](Cc1c[nH]c2ccccc12)C(=O)N[C@@H](CC(C)C)C(=O)N[C@@H](CCCCN)C(=O)N[C@@H](CCC(N)=O)C(=O)NCC(=O)NCC(=O)N1CCC[C@H]1C(=O)N[C@@H](CO)C(=O)N[C@@H](CCCCN)C(=O)N[C@@H](CCC(=O)O)C(=O)N[C@H](C(=O)N[C@H](C(=O)N[C@@H](CO)C(=O)NCCOCCOCC(=O)NCCCCC(N)C(=O)N1CCSC1)[C@@H](C)CC)[C@@H](C)CC (some centres unmarked) [Compound 5953]
[1]
  Stability in hKBBM: 76%

## CC[C@H](C)[C@H](NC(=O)[C@H](Cc1ccccc1)NC(=O)[C@H](CC(C)C)NC(=O)[C@H](CCCNC(=N)N)NC(=O)[C@@H](NC(=O)[C@H](C)NC(=O)[C@H](CCC(=O)O)NC(=O)[C@H](CCC(=O)O)NC(=O)[C@H](CCC(=O)O)NC(=O)[C@H](CC(C)C)NC(=O)[C@H](CCC(N)=O)NC(=O)[C@H](CCCCN)NC(=O)[C@H](CO)NC(=O)[C@H](CC(C)C)NC(=O)[C@H](CC(=O)O)NC(=O)[C@H](CO)NC(=O)[C@@H](NC(=O)[C@H](Cc1ccccc1)NC(=O)[C@@H](NC(=O)CNC(=O)[C@H](CCC(=O)O)NC(=O)CNC(=O)[C@@H](N)Cc1c[nH]cn1)[C@@H](C)O)[C@@H](C)O)C(C)C)C(=O)N[C@@H](CCC(=O)O)C(=O)N[C@@H](Cc1c[nH]c2ccccc12)C(=O)N[C@@H](CC(C)C)C(=O)N[C@@H](CCCCN)C(=O)N[C@@H](CCC(N)=O)C(=O)NCC(=O)NCC(=O)N1CCC[C@H]1C(=O)N[C@@H](CO)C(=O)N[C@@H](CCCCN)C(=O)N[C@@H](CCC(=O)O)C(=O)N[C@H](C(=O)N[C@H](C(=O)N[C@@H](CO)C(=O)NCCOCCOCC(=O)NCCCC[C@H](N)C(=O)N1CCC[C@H]1C#N)[C@@H](C)CC)[C@@H](C)CC [Compound 5954, [^14Leu,^28Gln]Exendin-4-(1-32)-fGLP-1-(33-37)-miniPEG-(S)-2,6-diamino-1-(pyrrolidin-2-cyano-1-yl)hexan-1-amide]
[1]
  Stability in hKBBM: 57%

## CC[C@H](C)[C@H](NC(=O)[C@H](Cc1ccccc1)NC(=O)[C@H](CC(C)C)NC(=O)[C@H](CCCNC(=N)N)NC(=O)[C@@H](NC(=O)[C@H](C)NC(=O)[C@H](CCC(=O)O)NC(=O)[C@H](CCC(=O)O)NC(=O)[C@H](CCC(=O)O)NC(=O)[C@H](CC(C)C)NC(=O)[C@H](CCC(N)=O)NC(=O)[C@H](CCCCN)NC(=O)[C@H](CO)NC(=O)[C@H](CC(C)C)NC(=O)[C@H](CC(=O)O)NC(=O)[C@H](CO)NC(=O)[C@@H](NC(=O)[C@H](Cc1ccccc1)NC(=O)[C@@H](NC(=O)CNC(=O)[C@H](CCC(=O)O)NC(=O)CNC(=O)[C@@H](N)Cc1c[nH]cn1)[C@@H](C)O)[C@@H](C)O)C(C)C)C(=O)N[C@@H](CCC(=O)O)C(=O)N[C@@H](Cc1c[nH]c2ccccc12)C(=O)N[C@@H](CC(C)C)C(=O)N[C@@H](CCCCN)C(=O)N[C@@H](CCC(N)=O)C(=O)NCC(=O)NCC(=O)N1CCC[C@H]1C(=O)N[C@@H](CO)C(=O)N[C@@H](CCCCN)C(=O)N[C@@H](CCC(=O)O)C(=O)N[C@H](C(=O)N[C@H](C(=O)N[C@@H](CO)C(=O)NCCCC(=O)NCCOCCOCC(=O)NCCCC(=O)NCCCCC(N)C(=O)N1CCS(=O)(=O)C1)[C@@H](C)CC)[C@@H](C)CC (some centres unmarked) [Compound 5955]
[1]
  Stability in hKBBM: 36%
NIH/Swiss female mice
  effect on body weight (in words): decrease in body weight, measurable at day 2
  return of body weight to pre-treatment levels (in words): body weight returns to pre-treatment levels by day 5
